The target in assay [1] is T1, human RNF43 extracellular domain (hRNF43 ECD) (human, UniProt Q68DV7 44-197, biotinylated (His-Avi tag)).
T1 construct: Expressed with a His-Avi tag at the N-terminus and biotinylated; also called human RNF3 (Q44-D198)
T1 sequence: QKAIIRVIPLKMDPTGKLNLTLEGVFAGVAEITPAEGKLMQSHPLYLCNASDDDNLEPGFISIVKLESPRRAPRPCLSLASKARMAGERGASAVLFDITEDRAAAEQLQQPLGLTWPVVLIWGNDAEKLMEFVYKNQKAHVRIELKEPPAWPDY
As to the kind of experiment: ELISA (binding specificity).

For assay [2], the target named is T2, human ZNRF3 extracellular domain (hZNRF3 ECD) (human, UniProt Q9ULT6 56-219, biotinylated (His-Avi tag)).
T2 construct: Expressed with a His-Avi tag at the N-terminus and biotinylated; also called ZRNF3
T2 sequence: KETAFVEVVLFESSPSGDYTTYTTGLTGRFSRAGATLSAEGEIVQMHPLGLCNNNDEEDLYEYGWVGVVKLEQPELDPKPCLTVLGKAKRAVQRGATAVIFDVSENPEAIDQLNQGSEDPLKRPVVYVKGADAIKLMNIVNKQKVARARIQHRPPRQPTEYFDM
The assay is described as follows: ELISA (binding specificity). Background: ELISA stands for enzyme-linked immunosorbent assay.

Assay [3] has as its target T2, human ZNRF3 extracellular domain …. As to the kind of experiment: BLI (Octet), biotinylated antigen on SA sensor, 1:1 fit. The method, then: (§1) Binding characterization of recombinant Fabs or IgG' s was carried out using Bio-Layer Interferometry (BLI) using the Octet Red 96 platform (PALL ForteBio, Fremont, Calif.) with streptavidin (SA) coated biosensors (PALL ForteBio,). […] Following immobilization, sensors were dipped into samples containing test molecules at seven concentrations. Values for KD were determined by fitting the resulting data with a 1:1 binding model.
(In BLI a coated tip is dipped into the sample, and binding shifts an interference pattern.)

For assay [4] the target is unchanged. The assay is described as follows: BLI (Octet) KD grade: * = KD >= 1 uM. The method, then:
as §1

Assay [5] has as its target human transferrin receptor 1 (TFR1), on cells (human, UniProt P02786 1-760). The assay is described as follows: cell-based or functional assay.
Assay [6] concerns the target T3, Fc portion of human IgG1-fused LGR5-ECD (R&D systems) (human, UniProt O75473 22-557, limits assumed).
T3 construct: extracellular domain; Bought reagent; also called LGRS; recombinant LGR5 protein; not shown: Fc portion of human IgG1
T3 sequence (looked up): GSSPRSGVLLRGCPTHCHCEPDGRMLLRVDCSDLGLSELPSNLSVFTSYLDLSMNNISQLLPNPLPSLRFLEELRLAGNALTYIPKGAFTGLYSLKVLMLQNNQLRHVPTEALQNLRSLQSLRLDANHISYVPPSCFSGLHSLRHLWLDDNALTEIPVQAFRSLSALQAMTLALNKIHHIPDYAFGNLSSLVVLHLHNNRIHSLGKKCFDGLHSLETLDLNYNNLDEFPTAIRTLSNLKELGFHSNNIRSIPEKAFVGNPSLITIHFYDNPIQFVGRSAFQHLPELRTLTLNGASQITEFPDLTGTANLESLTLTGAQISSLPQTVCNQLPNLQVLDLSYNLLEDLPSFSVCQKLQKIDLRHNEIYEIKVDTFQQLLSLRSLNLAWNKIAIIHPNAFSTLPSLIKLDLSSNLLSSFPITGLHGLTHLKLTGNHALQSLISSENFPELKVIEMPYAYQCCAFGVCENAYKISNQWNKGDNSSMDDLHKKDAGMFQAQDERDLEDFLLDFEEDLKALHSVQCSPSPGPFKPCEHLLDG
As to the kind of experiment: BLI (Octet), LGR5-ECD-Fc on AHC sensor. The method, then: (§2) Affinity measurement: Binding kinetics of the RSPO-derived proteins to LGRS, RNF43, or ZNRF3, and binding of the anti-ASGR Fabs to human and/or mouse ASGR1 were determined by bio-layer interferometry (BLI) using Octet Red 96 (PALL ForteBio, Fremont, CA) instruments at 30° C., 1000 rpm with either streptavidin (SA) or anti-hIgG Fc capture (AHC) biosensors. […] Following capture of ECDs of RNF43, ZNRF3 or LGRS, the biosensors were dipped into wells containing the relevant test molecules at 7 different concentrations in running buffer plus a well with only running buffer as a reference channel. KD was determined by steady-state analysis based on the average responses between 140 to 145 seconds of association phase, for binding to LGRS, RNF43, and ZNRF3. For the binding to ASGR, KD was determined by curve model fitting using the Octet® Red data analysis software (Fortebio)

Assay [7] addresses T1, human RNF43 extracellular domain …. As to the kind of experiment: BLI (Octet), biotinylated RNF43 ECD on SA sensor. The method, then:
as §2

Assay [8] addresses T2, human ZNRF3 extracellular domain …. The assay is described as follows: BLI (Octet), biotinylated ZNRF3 ECD on SA sensor. The method, then:
as §2

Assay [9] concerns the target T4, human ASGR1 extracellular domain (hASGR1 ECD) (human, UniProt P07306 62-291, biotinylated (His-Avi tag)).
T4 construct: His-Avi tag at the N-terminus, biotinylated for BLI; also called human ASGR1 ECD
T4 sequence: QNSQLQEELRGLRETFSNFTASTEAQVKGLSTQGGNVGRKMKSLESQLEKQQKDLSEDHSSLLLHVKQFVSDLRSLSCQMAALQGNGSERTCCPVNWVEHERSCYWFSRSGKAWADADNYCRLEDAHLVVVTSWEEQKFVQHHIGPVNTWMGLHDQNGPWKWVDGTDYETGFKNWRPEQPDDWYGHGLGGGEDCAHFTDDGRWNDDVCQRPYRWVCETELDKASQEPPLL
The assay is described as follows: BLI, Fab on hASGR1; KD only in the figure.

Numbering of substitutions follows the chain as printed. In names and notes the source's numbering stands. Bounds are passed on as bounds.

These results are taken from US20210380678A1 (SURROZEN OPERATING, published 2021).

human transferrin receptor 1 (TFR1), on cells, sequence (P02786 whole entry, the tested form may be a part): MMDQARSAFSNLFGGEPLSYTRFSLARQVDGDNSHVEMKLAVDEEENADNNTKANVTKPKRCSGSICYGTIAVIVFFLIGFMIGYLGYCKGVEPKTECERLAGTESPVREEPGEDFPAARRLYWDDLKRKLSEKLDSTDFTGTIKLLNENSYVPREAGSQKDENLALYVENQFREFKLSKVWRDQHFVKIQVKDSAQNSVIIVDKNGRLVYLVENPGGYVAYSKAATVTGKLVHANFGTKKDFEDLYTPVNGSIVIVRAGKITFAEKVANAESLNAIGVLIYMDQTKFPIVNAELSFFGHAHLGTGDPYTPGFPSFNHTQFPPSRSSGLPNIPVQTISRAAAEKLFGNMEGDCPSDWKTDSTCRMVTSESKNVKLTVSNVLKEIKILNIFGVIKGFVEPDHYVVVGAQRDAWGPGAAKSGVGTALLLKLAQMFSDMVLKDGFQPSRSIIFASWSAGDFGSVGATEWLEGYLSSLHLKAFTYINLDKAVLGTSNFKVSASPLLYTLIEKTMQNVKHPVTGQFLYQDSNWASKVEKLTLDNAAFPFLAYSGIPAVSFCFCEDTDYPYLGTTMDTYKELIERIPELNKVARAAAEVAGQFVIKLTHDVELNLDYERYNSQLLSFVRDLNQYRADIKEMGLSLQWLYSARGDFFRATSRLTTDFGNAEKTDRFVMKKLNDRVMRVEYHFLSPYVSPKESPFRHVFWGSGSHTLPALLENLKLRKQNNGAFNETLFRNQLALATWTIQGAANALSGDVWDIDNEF

B1: 020S-F07 (antibody, V domains shown)
VH: EVQLLESGGGLVQPGGSLRLSCAASGFTFSNYAMGWVRQAPGKGLEWVSYISRSSSTIYYADSVKGRFTISRDNSKNTLYLQMNSLRAEDTAVYYCARRRDGYNWGYWGQGTLVTVSS
VL: DIQMTQSPSSLSASVGDRVTITCRASQDISNSLNWYQQKPGKAPKLLIYAASTLQSGVPSRFSGSGSGTDFTLTISSLQPEDFATYYCQQSYSPPHTFGGGTKVEIK
B1: the binding result in [1] and in assay [2] was “binds” each time.

B2: 028S-E10 (antibody, V domains shown)
VH: QVQLVQSGAEVKKPGASVKVSCKASGYTFTSYYMHWVRQAPGQGLEWMGWINPNTGGTKSAQKFQGRVTMTRDTSTSTVYMELSSLRSEDTAVYYCARVLRGSLGFDYWGQGTLVTVSS
VL: B1 VL with N31R, S32Y, N34A, L54V, Q55E, S93R, P94S, H96Y, G100Q, V104L
One may read the Kd as the equilibrium constant for the complex coming apart. Read a low Kd as a tighter complex. For orientation: KD means a measure of binding affinity in units of concentration. A higher KD goes with lower affinity. With B2, binding in assay [3] was put at a Kd of 4.16 µM. Further, the dissociation constant (KD) in assay [4] is at least 1 µM.

B3: 028S-A09 (antibody, V domains shown)
VH: QVQLVQSGAEVKKPGASVKVSCKASGYRFTSYYLHWVRQAPGQGLEWMGWMNPKSGGTNYAQKFQGRVTMTRDTSTSTVYMELSSLRSEDTAVYYCARGGRSYGYWYFDLWGRGTLVTVSS
VL: EIVMTQSPATLSVSPGERATLSCRASQSVDSSYLAWYQQKPGQAPRLLIYAASARAAGIPARFSGSGSGTEFTLTISSLQSEDFAVYYCQQYYRSPPTFGQGTRLEIK
In turn, B3 had a Kd in assay [3] of 12.5 µM. This molecule also displayed an equilibrium dissociation constant (KD) in assay [4] of at least 1 µM.

B4: 020S-D07 (antibody, V domains shown)
VH: QVQLVQSGAEVKKPGSSVKVSCKASGGTFSNTDINWVRQAPGQGLEWMGGIIPIFGTANYAQKFQGRVTITADESTSTAYMELSSLRSEDTAVYYCVGGRSGWIWYFDLWGRGTLVTVSS
VL: DIQMTQSPSSLSASVGDRVTITCRASQSISRWLAWYQQKPGKAPKLLIYDASSLETGVPSRFSGSGSGTDFTLTISSLQPEDFATYYCQQAYSFPWTFGQGTKVEIK
B4: the binding result in [1] and in assay [2] was “binds” each time.

B5: αTFR1-RSPO2-RA (anti-TFR1, RSPO2 (F105R/F109A)) (other)
chain: QVQLQQSGPELVRPGVSVKISCKGSGYTFTDYAMHWVKQSHAKSLEWIGGISTYFGRTNYNQKFKGRATMTVDKSSSTAYMELARLTSEDSALYYCARGLSGNYVMDYWGQGTSVTVSSGGGGSGGGGSGGGGSDIVLFQSPASLAVSLGQRATISCRASESVDDYGNSFMHWYQQKPGQPPKLLIYRASNLESGIPARFSGSGSRTDFTLTINPVEADDVATYYCQQSNEAPPTFGGGTKLEIRGSGGSNPICKGCLSCSKDNGCSRCQQKLFFFLRREGMRQYGECLHSCPSGYYGHRAPDMNRCARCRIENCDSCRSKDACTKCKVGFYLHRGRCFDECPDGFAPLEETMECVEGGDYKDDDDKGSHHHHHHHH
notes: FLAG-His tag; also called αTFR-RSPO2-RA
On to B5, for which the “potency in the HEK293 STF reporter assay with Wnt sources” value in [5] was around 20 fold. For the same molecule, the binding result in [6] was “no binding”.

B6: αTFR1-RSPO2-WT (anti-TFR1, RSPO2 wild type) (other)
chain: B5 chain with R319F, A323F
Regarding B6, in [5], the “EC50 in the HEK293 STF reporter assay with Wnt sources” value is around 20 fold and the “potency in the HEK293 STF reporter assay with Wnt sources” value is around 400 fold.

B7: αTFR1-RSPO2-5mut (anti-TFR1, RSPO2 (R65A/R69A/Q70A/F105A/F109A)) (other)
chain: B5 chain with R279A, R283A, Q284A
notes: FLAG-His tag; also called αTFR1-RSPO2-Smut; αTFR-RPOS-5mut
Consider B7, for which the binding result in [7], in assay [8] and in assay [6] was “no binding” throughout.

B8: 024S-D03 Fab (Fab, V domains shown)
VH: QVQLQQSGPGLVKPSQTLSLTCAISGDSVSSNSAAWNWMRQSPSRGLEWLGRTYYRSKWYNDYAVSVKSRMTINPDTSRNQFSLQLNSVTLEDTAVYYCARWNHEEHYFDYWGQGTLVTVSS
VL: EIVLTQSPATLSFSPGERATLSCRASQSVGSYLAWYQQRPGQAPRPLIYDATNRATGIPTRFSGSGSGTDFTLTISSLEPEDFATYYCQHRRTFGRGTKLEIK
notes: Tested as Fab, identified by phage display
Take B8: in assay [9], the binding result is “binds”.

B9: 024S-A04 Fab (Fab, V domains shown)
VH: QVQLQQSGPGLVKPSQTLSLTCAISGDSVSSNSVAWNWMRQSPSRGLEWLGRTYYRSKWYYDYAVSVKSRITINPDTSKNQFSLQLNSVTPEDTAVYYCASWTRGAFDIWGQGTMVTVSS
VL: B8 VL with E1D, V3Q
notes: as for B8
Regarding B9, in [9], the binding result is “binds”.

B10: 024S-E03 Fab (Fab, V domains shown)
VH: B8 VH with D27A, M39I, M71I, R79K, L91P, E92G
VL: B8 VL with E1D, I2V, L4M
notes: as for B8
Turning to B10, the binding result in assay [9] is listed as “binds”.

B11: αGFP-RSPO2-5mut (anti-GFP, RSPO2 (R65A/R69A/Q70A/F105A/F109A)) (other)
chain: QVQLVESGGGLVQPGGSLRLSCAASGFTFSRYGMHWVRQAPGKGLEWVSGISSIGSNTYYADSVKGRFTISRDNSKNTLYLQMNSLRAEDTAVYYCARWYKTYIDVWGQGTLVTVSSGGGGSGGGGSGGGGSDIELTQPPSVSVAPGQTARISCSGDNLGKKYVYWYQQKPGQAPVLVIYGDDERPSGIPERFSGSNSGNTATLTISGTQAEDEADYYCASYDSSHILIVFGGGTKLTVLGSGGSNPICKGCLSCSKDNGCSRCQQKLFFFLRAEGMAAYGECLHSCPSGYYGHRAPDMNRCARCRIENCDSCRSKDACTKCKVGFYLHRGRCFDECPDGFAPLEETMECVEGGDYKDDDDKGSHHHHHHHH
notes: scFv against GFP fused to the RSPO2 Fu1-Fu2 fragment with five mutations; FLAG-His tag; also called αGFP-RSPO2-Smut
Regarding B11, the binding result in assay [6] is given as “no binding”.
